The text below walks through data of patent US20040052799.

The series concerns the target T1, N-succinyl-Ala-Ala-Pro-Phe-p-nitroanilide.
T1 chain: AAPF

B1: Recombinant H. pylori peptidyl-prolyl cis-trans isomerase (ppiB), His-tagged (protein)
chain: FIAIIEHLNDKSLSQRFMMKPIKTYDIKEEELAKTAYATIKTNKGNITLELFYKDAPQAVSNFVTLAKEGFYNGLNFHRVIAGFVAQGGCPYGTGTGGPEHRIKCEVAHNPNKHQRGSISMAHAGRDTGGSQFFLCFVDLPHLDGEHTVFGKITSAESLSVLDKIKQGDIIESVVFSPSL
As for B1, the kcat entry is recorded as “This corresponds to a kcat of 1.6 sec^-1”.
